Our source for the B12 binding values is patent US20240407381A1, “FOOD COMPOSITIONS COMPRISING RECOMBINANT CELLS COMPRISING TRANSCOBALAMIN” (IMAGINDAIRY LTD., priority 2021, published 2024).

The assay in a line: biochemical tests of B12 binding. The settings on record: purified recombinant transcobalamin expressed in A. oryzae. An excerpt: The entire process was scalable to produce the protein in large batches. Afterwards, the inventors feedbacked the expression information (RNAseq) to the machine learning to create better constructs until reaching optimal transcobalamin expression.

B1: transcobalamin: recombinant bovine transcobalamin secreted from A. oryzae and purified from the harvested medium; TC2 expression confirmed (protein, UniProt Q9XSC9 19-432, looked up)
Transcobalamin-2: NICEITEVDSTLVERLGQRLLPWMDRLSQEQLNPSIYVGLRLSSLQAGAKEAHYLHSLKLSYQQSLLRPASNKDDNDSEAKPSMGQLALYLLALRANCEFIGGRKGDRLVSQLKRFLEDEKRAIGHNHQGHPRTSYYQYSLGILALCVHQKRVHDSVVGKLLYAVEHKPHLLQDHVSVDTMAMAGMAFSCLELSNLNPKQRNRINLALKRVQEKILKAQTPEGYFGNVYSTPLALQLLMGSLRPSVELGTACLKAKAALQASLQHKTFQNPLMISQLLPVLNQKSYVDLISPDCQAPRALLEPALETPPQAKVPKFIDVLLKVSGISPSYRHSVSVPAGSSLEDILKNAQEHGRFRFRTQASLSGPFLTSVLGRKAGEREFWQVLRDPDTPLQQGIADYRPKDGETIELRLVGW
Take B1: the B12 binding result is reported as “effective B12 binding”.
